In patent US20210292393A1 (published 2021):
Changes are numbered by the printed parent chain.

B1: antibody 547 (antibody, V domains shown)
VH: QVHLVESGGGVVQPGRSLRLSCAASGFALSSYAMHWVRQPPGKGLEWVALISYDGSVKKYADSVKGRITVSGDNSRNTLHLQINSLRADDTAVYYCVRGGVSGPNSFDLWGHGTMVTVSS
VL: DVVLTQSPLSLPVTLGQPASISCRSSQSLEYSVGNTYVNWFQQRPGQSPRRLIYKVSNRDSGVPDRFSGSGSGTDFTLQISRVEADDVGIYYCMQGTHWPVTFGQGTKVEIK
B2: antibody 365 (antibody, V domains shown)
VH: QVQLVESGGGVVQPGRSLRLSCAASGFNLSSYAMHWVRQASGKGLEWVSLISYDGSIKYYTDSVKGRFTVSGDNSKNTLFLQMNSLRPDDSALYYCVRGGVSGPNSFDMWGQGTTVTVSS
VL: B1 VL with L4M, E30V, V33D, N58I, D60A, T77A, Q79K, D86E, I90V
B3: antibody 407 (antibody, V domains shown)
VH: QVQLVESGGGVVQPGRSLRLSCAASGFTFSSYGMHWVRQAPGKGLEWVAVISYDGSNKYYADSVKGRFTISRDNSKNTLYLQMNSLRAEDTAVYYCAKCGWDYDFWVGQGYGMDVWGQGTTVTVSS
VL: not shown
B4: antibody 456 (antibody, V domains shown)
VH: QVQLQQWGAGLLKPSETLSLTCAVYGGSFSGYYWSWIRQPPGKGLEWIGEINHSGSTNYNPSLKSRVTISVDTSKNQFSLKLSSVTAADTAVYYCARDGSGSYYLSYYFDYWGQGTLVTVSS
VL: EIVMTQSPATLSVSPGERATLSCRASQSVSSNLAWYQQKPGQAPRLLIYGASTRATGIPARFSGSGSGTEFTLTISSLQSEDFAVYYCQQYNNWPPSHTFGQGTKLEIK
B5: antibody 482 (antibody, V domains shown)
VH: EVQLVESGGGLVQPGGSLRLSCAASGFTFSSYWMTWVRQAPGKGLEWVANIKQDGSEKYYVDSVKGRFTISRDNAKNSLYLQMNSLRAEDTAVYYCARGVGSWYLGFDYWGQGTLVTVSS
VL: NFMLTQPHSVSESPGKTVTISCTGSSGSIASNYVQWYQQRPGSAPTTVIYEDNQRPSGVPDRFSGSIDSSSNSASLTISGLKTEDEADYYCQSYDGSSYVFGTGTKVTVL
B6: antibody 454 (antibody, V domains shown)
VH: QVQLVQSGAEVKKPGASLKVSCKASGYIFTGYYMHWVRQAPGQGLEWMGWISPNSGGTKYAQKFQGRVTMTRDTSISTAYMELSRLRSDDSAVYYCAREPYYDILTGYYTPRRYLDYWGQGTLVTVSS
VL: QSALTQPASVSGSPGQSITISCTGTSSDVGDYNYVSWYQQHPGKVPKLMIYDVSHRPSGVTNRFSGSKSGNTASLTISGLRAEDEADYYCSSYTSSSTYVFGTGTKVTVL
B7: antibody 367 (antibody, V domains shown)
VH: B6 VH with L18V, I28T, M34I, S52N, K59I, R87T, S91T, Y95S, T110A, L115F
VL: B6 VL with D31S, Q39L, V45A, H55N, T61S, R81Q, Y88F, S96R
B8: antibody 556 (antibody, V domains shown)
VH: QVQLVESGGGVVQPGRSLRLSCAASGFTFSSYAMHWVRQAPGKGLEWVAVISYDGSDKYYADSVKGRVTISRDNSKNTLYLQMNSLRVEDTAVFYCAKDDCSGGVCFPDYWGQGTLVTVSS
VL: B6 VL with D31G, V45A, D52E, H55I, T61S, R81Q, D87A, Y99L, T103G, V107L
B9: antibody 477 (antibody, V domains shown)
VH: QVQLVESGGGVVQPGRSLRLSCAASGITFSSYAMHWVRQAPGKGLEWVAVISYDGSDKYHADSVKGRFAISRDNSKNTLYLQMNSLRAEDTAVYYCAKDKGIAVAGTGWIRPDPEYYFDYWGQGTLVTVSS
VL: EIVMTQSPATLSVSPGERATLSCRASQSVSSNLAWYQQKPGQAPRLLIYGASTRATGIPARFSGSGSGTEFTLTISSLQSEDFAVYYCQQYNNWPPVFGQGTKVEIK
B10: antibody 409 (antibody, V domains shown)
VH: QVTLRESGPALVKPTQTLTLTCTFSGFSLSTSGMCVSWIRQPPGKALEWLALIDWDDDKYYSTSLKTRLTISKDTSKNQVVLTMTNMDPVDTATYYCARTTYYYVSGRRAEFDPWGQGTLVTVSS
VL: NFMLTQPHSVSESPGKTVTISCTGSSGSIASNYVQWYQQRPGSAPTTVIYEDNQRPSGVPDRFSGSIDSSSNSASLTISGLKTEDEADYYCQSYDSSNQGVFGGGTKLTVL
B11: antibody 366 (antibody, V domains shown)
VH: QVQLVESGGGVVQPGRSLRLSCAASGFTFSSYAMHWVRQAPGKGLEWVAVISYDGSNKYYADSVKGRFTISRDNSKNTLYLQMNSLRAEDTAVYYCARGLVGYNWFDPWGQGTLVTVSS
VL: DIQMTQSPSSVSASVGDRVTITCRASQGISSWLAWYQQKPGKAPKLLIYAASSLQSGVPSRFSGSGSGTDFTLTISSLQPEDFATYYCQQANSFTFGPGTKVDIK
B12: antibody 480 (antibody, V domains shown)
VH: QVQLVESGGGVVQPGRSLRLSCAASGFTFSSYAMHWVRQAPGKGLEWVAVISYDGNNKYYADSVKGRFTISRDNSKNTLYLQMNSLRAEDTAVYYCVRTNSGSYYAAFDYWGQGTLVTVSS
VL: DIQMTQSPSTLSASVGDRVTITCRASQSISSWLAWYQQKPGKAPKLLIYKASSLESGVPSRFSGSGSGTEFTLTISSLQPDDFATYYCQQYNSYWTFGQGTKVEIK
B13: antibody 548 (antibody, V domains shown)
VH: B12 VH with N56S, S85N, V97A, R98K, T99S, N100G, Y105L, A106S, Y110I, L116M
VL: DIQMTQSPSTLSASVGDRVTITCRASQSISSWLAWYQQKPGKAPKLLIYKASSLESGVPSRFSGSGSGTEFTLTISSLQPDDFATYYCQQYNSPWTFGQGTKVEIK
B14: antibody 385 (antibody, V domains shown)
VH: B12 VH with M34I, N56S, V97A, T99P, N100R, Y105W, A106G, Y110I, L116M
VL: QSVLTQPPSVSGAPGQRVTISCTGSSSNIGARYDVHWYQQLPGTAPKLLIYGNSNRPSGVPDRFSGSKSGTSASLAITGLQAEDEADYYCQSYDSSLRGVFGGGTKLTVL
B15: antibody 470 (antibody, V domains shown)
VH: not shown
VL: QSALTQPASVSGSPGQSITISCTGTSSDVGSYNLVSWYQQHPGKAPKLMIYEVSKRPSGVSNRFSGSKSGNTASLTISGLQAEDEADYYCCSYAGSSTLVFGGGTKLTVL
B16: antibody 372 (antibody, V domains shown)
VH: QVQLVESGGGVVQPGRSLRLSCAASGFTFSSYAMHWVRQAPGKGLEWVAVISYDGSNKYYADSVKGRFTISRDNSKNTLYLQMNSLRAEDTAVYYCARDLGTSALLWFGELFLNYGMDVWGQGTTVTVSS
VL: B15 VL with A8R, I18V, S31G, L34Y, E52D, S61P, N62D, S97P, T98I
B17: antibody 378 (antibody, V domains shown)
VH: QVQLVQSGAEVKKPGASVKVSCKASGYTFTSYYMHWVRQAPGQGLEWMGIINPSGGSTSYAQKFQGRVTMTRDTSTSTVYMELSSLRSEDTAVYYCARDSGGMDDFWSGYYSPGGDYWGQGTLVTVSS
VL: B15 VL with V53G, L99W
B18: antibody 405 (antibody, V domains shown)
VH: not shown
VL: B15 VL with A8R, I18V, S31G, L34Y, E52D, S61P, N62D, S97Y, T98N, L99V
B19: antibody 395 (antibody, V domains shown)
VH: QVQLVQSGSELKKPGASVKLSCQASGYTFSNHAMNWVRQAPGQGLEWMGWINTNTGNPTYAQGFTGRFVFSLDTSVGTAYLHISSLKAEDTAFYYCARASARPGVATNLDFWGQGTLVVVSS
VL: DIQMTQSPSSLSASVGDRVTITCRTSQNIDNYLNWYQQKPGKAPNLLIYAASRLHSGVPSRFSGSGSGTDFTLIISSLQPEDLATYYCQQSYSNPLTFGPGTKVDIR
B20: antibody 380 (antibody, V domains shown)
VH: QVQLVESGGGVVQPGRSLRLSCAASGFTLKNYGMHWVRQAPGKGLEWVIVLSFDGSDEYKADSVRGRFTVSRDNSKNTLFLQMNSLRPDDTAVYYCAREQPTMIEGGRGPFDIWGQGTMVTVSS
VL: EVVMTQSPATLSVSPGDRATLSCRASQGVNSNLAWYQQKPGQAPRLLIYAASTRATGIPARFSASGSGTHFTLTISSLQSEDFAVYYCLQYNNWPPWTFGQGTKLEIK
B21: antibody 475 (antibody, V domains shown)
VH: QVQLVESGGGVVQPGRSLRLSCAASGFTFSSYAMHWVRQAPGKGLEWVTFISHEGSNKYYADSVKGRFTISRDNSKNTLYLQMNSLRAEDTAVYYCARTFEYSSSSATGDFDYWGQGTLVTVSS
VL: QSVLTQPPSVSGAPGQRVTISCTGSSSNIGAGYDVHWYQQLPGTAPKLLIYGNSNRPSGVPDRFSGSKSGTSASLAITGLQAEDEADYYCQSYDSSLSGVVFGGGTKLTVL
B22: antibody 476 (antibody, V domains shown)
VH: QVQLVQSGSELKKPGASVKVSCKASGYTFTSYAMNWVRQAPGQGLEWMGWINTNTGNPTYAQGFTGRFVFSLDTSVSTAYLQISSLKAEDTGVYYCARDHELPNSSSWFGHFEYWGQGTLVTVSS
VL: SYELTQPPSVSVSPGQTARITCSGDALPKQYAYWYQQKAGQAPVLVIYKDSERRSGIPERFSGSSSGTTVTLTISGVQAEDEADYYCQSADSSGTSVVFGGGTKLTVL

Assays:
[1] = molecular target: SARS-CoV-2 full length spike (S) protein, wild type, expressed on the surface of CHO cells (SARS-CoV-2, UniProt P0DTC2 14-1273)
[2] = molecular target: SARS-CoV-2 full length spike protein (wild type), conjugated to beads (SARS-CoV-2, UniProt P0DTC2 14-1208)
[3] = molecular target: SARS-CoV-2 full length spike protein (wild type), expressed on the surface of transiently transfected CHO … (SARS-CoV-2, UniProt P0DTC2 14-1273)

Binder | binding signal, bead assay [2] | median fluorescence intensity, fold over isotype control [3] | further results
B1 | – | – | median fluorescence intensity, fold over isotype control [1]: 10.6 fold over isotype
B2 | 533 fold over isotype | – | –
B3 | 785 fold over isotype | – | –
B4 | – | 9.25 fold over isotype | –
B5 | – | 2.31 fold over isotype | –
B6 | – | 29.6 fold over isotype | –
B7 | 1090 fold over isotype | – | –
B8 | – | – | median fluorescence intensity, fold over isotype control [1]: 7.59 fold over isotype
B9 | – | 30.7 fold over isotype | –
B10 | 552 fold over isotype | – | –
B11 | 553 fold over isotype | – | –
B12 | – | 9.77 fold over isotype | –
B13 | – | – | median fluorescence intensity, fold over isotype control [1]: 9.26 fold over isotype
B14 | 602 fold over isotype | – | –
B15 | – | 20.7 fold over isotype | –
B16 | 823 fold over isotype | – | –
B17 | 526 fold over isotype | – | –
B18 | 487 fold over isotype | – | –
B19 | 592 fold over isotype | – | –
B20 | 1.15 fold over isotype | – | –
B21 | – | 32.2 fold over isotype | –
B22 | – | 18.2 fold over isotype | –
